Earlier results in paper PMC11507603.

Target: Ubiquitin (UniProt P0CG48)
Assay: SPR

Sequence of Epsin Ent1 ENTH (Q12518 8-146): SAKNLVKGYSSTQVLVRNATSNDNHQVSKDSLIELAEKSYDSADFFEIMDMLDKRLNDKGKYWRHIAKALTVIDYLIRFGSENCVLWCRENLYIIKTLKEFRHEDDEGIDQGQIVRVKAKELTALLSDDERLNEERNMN

For Epsin Ent1 ENTH (from UniProt Q12518), which Kd is on record?
The Kd was 2300 µM.
